Measured values taken from PMC12147176, “Unstructured protein domains stabilize RNA binding and mediate RNA folding by AUF1”.

Assays:
His6-p37AUF1 wt [1] = target: T1, His6-p37AUF1 wt (human, UniProt Q14103-4 1-287); test: fluorescence anisotropy; Anisotropy: 10 mM Tris-HCl pH 8.0, 100 mM KCl (50 mM for Fl-ARE2), 0.5 mM EDTA, 0.1 ug/ul acetylated BSA, 1 ug/ul heparin, 2 mM DTT, 25 C, RNA 0.2-0.4 nM; EMSA: same with 100 mM KCl, 10% glycerol, 1 nM RNA, on ice, UV crosslinked; details: protein: recombinant, chain copies: 2; for Kd: label: 3' fluorescein
His6-p37AUF1(78-239) [2] = target: T2, His6-p37AUF1(78-239) (human, UniProt Q14103-4 78-239); test: as above; details: protein: recombinant; for Kd: label: 3' fluorescein
His6-p37AUF1 wt [3] = target: T1, His6-p37AUF1 wt; test: EMSA (UV-crosslinked); Anisotropy: 10 mM Tris-HCl pH 8.0, 100 mM KCl (50 mM for Fl-ARE2), 0.5 mM EDTA, 0.1 ug/ul acetylated BSA, 1 ug/ul heparin, 2 mM DTT, 25 C, RNA 0.2-0.4 nM; EMSA: same with 100 mM KCl, 10% glycerol, 1 nM RNA, on ice, UV crosslinked; details: protein: recombinant; chain copies: 2; label: biotin
His6-p37AUF1(78-239) [4] = target: T2, His6-p37AUF1(78-239); test: as above; details: protein: recombinant; label: biotin
His6-p37AUF1(1-239) [5] = target: T3, His6-p37AUF1(1-239) (human, UniProt Q14103-4 1-239); test: fluorescence anisotropy; first site (Kd1), 50 mM KCl; Anisotropy: 10 mM Tris-HCl pH 8.0, 100 mM KCl (50 mM for Fl-ARE2), 0.5 mM EDTA, 0.1 ug/ul acetylated BSA, 1 ug/ul heparin, 2 mM DTT, 25 C, RNA 0.2-0.4 nM; EMSA: same with 100 mM KCl, 10% glycerol, 1 nM RNA, on ice, UV crosslinked; details: protein: recombinant; chain copies: 2; label: 5' fluorescein
His6-p37AUF1 wt [6] = target: T1, His6-p37AUF1 wt; test: as above; details: protein: recombinant; chain copies: 2; label: 5' fluorescein
His6-p37AUF1(78-239) [7] = target: T2, His6-p37AUF1(78-239); test: as above; details: protein: recombinant; label: 5' fluorescein
His6-p37AUF1 W87F [8] = target: T4, His6-p37AUF1 W87F (human, UniProt Q14103-4 1-287, W87F); test: Trp fluorescence and iodide quenching; 2 uM each; KSV 3.88 M-1; Anisotropy: 10 mM Tris-HCl pH 8.0, 100 mM KCl (50 mM for Fl-ARE2), 0.5 mM EDTA, 0.1 ug/ul acetylated BSA, 1 ug/ul heparin, 2 mM DTT, 25 C, RNA 0.2-0.4 nM; EMSA: same with 100 mM KCl, 10% glycerol, 1 nM RNA, on ice, UV crosslinked; details: protein: recombinant; tags: N-term His6; chain copies: 2
His6-p37AUF1(1-239) [9] = target: T3, His6-p37AUF1(1-239); test: fluorescence anisotropy; Anisotropy: 10 mM Tris-HCl pH 8.0, 100 mM KCl (50 mM for Fl-ARE2), 0.5 mM EDTA, 0.1 ug/ul acetylated BSA, 1 ug/ul heparin, 2 mM DTT, 25 C, RNA 0.2-0.4 nM; EMSA: same with 100 mM KCl, 10% glycerol, 1 nM RNA, on ice, UV crosslinked; details: protein: recombinant; chain copies: 2; label: 3' fluorescein
His6-p37AUF1(69-287) = His6-p37AUF1(69-287) (human, UniProt Q14103-4 69-287); test: as above; details: protein: recombinant; label: 3' fluorescein
His6-p37AUF1(69-239) = His6-p37AUF1(69-239) (human, UniProt Q14103-4 69-239); test: as above; details: protein: recombinant; label: 3' fluorescein
His6-p37AUF1(78-287) = His6-p37AUF1(78-287) (human, UniProt Q14103-4 78-287); test: as above; details: protein: recombinant; chain copies: 2; label: 3' fluorescein
His6-p37AUF1(30-287) = His6-p37AUF1(30-287) (human, UniProt Q14103-4 30-287); test: as above; details: protein: recombinant; chain copies: 2; label: 3' fluorescein
p37AUF1 (EK-cleaved) = p37AUF1 (EK-cleaved) (human, UniProt Q14103-4 1-287); test: as above; details: protein: recombinant; tags: His6 removed by enterokinase; chain copies: 2; label: 3' fluorescein
His6-p37AUF1(Δ69-77) = His6-p37AUF1(Δ69-77) (human, UniProt Q14103-4 1-287, del69-77); test: as above; details: protein: recombinant; chain copies: 2; label: 3' fluorescein
His6-p37AUF1 W250F = His6-p37AUF1 W250F (human, UniProt Q14103-4 1-287, W250F); test: as above; details: protein: recombinant; tags: N-term His6; chain copies: 2; label: 3' fluorescein
His6-p37AUF1 W87F [10] = target: T4, His6-p37AUF1 W87F; test: Trp fluorescence and iodide quenching; 2 uM each; KSV 0.60 vs 6.59 M-1 without RNA; saturates near 1:1; Anisotropy: 10 mM Tris-HCl pH 8.0, 100 mM KCl (50 mM for Fl-ARE2), 0.5 mM EDTA, 0.1 ug/ul acetylated BSA, 1 ug/ul heparin, 2 mM DTT, 25 C, RNA 0.2-0.4 nM; EMSA: same with 100 mM KCl, 10% glycerol, 1 nM RNA, on ice, UV crosslinked; details: protein: recombinant; tags: N-term His6; chain copies: 2

T1 sequence (Q14103 other isoform, or with tags, fused parts or gaps): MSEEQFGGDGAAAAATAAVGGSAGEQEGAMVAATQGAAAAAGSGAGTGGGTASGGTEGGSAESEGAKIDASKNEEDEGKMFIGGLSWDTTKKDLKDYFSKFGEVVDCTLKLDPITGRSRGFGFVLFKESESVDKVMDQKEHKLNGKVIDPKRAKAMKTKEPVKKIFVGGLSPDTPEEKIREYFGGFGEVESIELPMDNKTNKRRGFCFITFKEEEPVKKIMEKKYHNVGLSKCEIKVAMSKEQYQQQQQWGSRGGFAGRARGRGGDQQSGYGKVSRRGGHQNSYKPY
T2 sequence (Q14103 other isoform, or with tags, fused parts or gaps): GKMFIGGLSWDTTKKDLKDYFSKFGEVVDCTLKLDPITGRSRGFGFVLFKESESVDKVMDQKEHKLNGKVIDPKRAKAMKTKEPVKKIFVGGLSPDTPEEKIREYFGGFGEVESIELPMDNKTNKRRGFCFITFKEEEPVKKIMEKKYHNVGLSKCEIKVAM
T3 sequence (Q14103 other isoform, or with tags, fused parts or gaps): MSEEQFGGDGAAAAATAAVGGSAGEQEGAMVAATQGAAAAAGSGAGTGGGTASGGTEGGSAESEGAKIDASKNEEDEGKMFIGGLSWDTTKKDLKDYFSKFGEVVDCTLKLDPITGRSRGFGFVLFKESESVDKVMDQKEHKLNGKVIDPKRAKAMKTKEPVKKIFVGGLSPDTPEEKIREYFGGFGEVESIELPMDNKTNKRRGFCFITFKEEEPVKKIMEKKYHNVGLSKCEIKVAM
T4 sequence (Q14103 other isoform, or with tags, fused parts or gaps W87F | W87F W87F): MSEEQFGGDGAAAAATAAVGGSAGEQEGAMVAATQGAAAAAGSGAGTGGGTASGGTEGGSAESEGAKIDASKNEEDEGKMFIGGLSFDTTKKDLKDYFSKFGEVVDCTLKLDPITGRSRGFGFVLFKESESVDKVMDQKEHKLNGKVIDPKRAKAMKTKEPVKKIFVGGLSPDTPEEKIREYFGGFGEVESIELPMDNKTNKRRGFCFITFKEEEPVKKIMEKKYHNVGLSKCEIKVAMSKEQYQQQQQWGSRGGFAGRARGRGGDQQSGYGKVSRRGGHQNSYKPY
Sequence of His6-p37AUF1(69-239) (Q14103 other isoform, or with tags, fused parts or gaps): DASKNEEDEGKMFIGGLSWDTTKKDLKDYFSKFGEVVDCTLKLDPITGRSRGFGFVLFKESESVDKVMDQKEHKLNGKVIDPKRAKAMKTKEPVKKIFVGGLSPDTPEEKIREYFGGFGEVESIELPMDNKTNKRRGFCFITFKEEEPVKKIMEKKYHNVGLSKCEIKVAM
Sequence of p37AUF1 (EK-cleaved) (Q14103 other isoform, or with tags, fused parts or gaps): as the sequence (Q14103 other isoform, or with tags, fused parts or gaps W87F | W87F W87F) above, with F87W counted along it
Sequence of His6-p37AUF1(78-287) (Q14103 other isoform, or with tags, fused parts or gaps): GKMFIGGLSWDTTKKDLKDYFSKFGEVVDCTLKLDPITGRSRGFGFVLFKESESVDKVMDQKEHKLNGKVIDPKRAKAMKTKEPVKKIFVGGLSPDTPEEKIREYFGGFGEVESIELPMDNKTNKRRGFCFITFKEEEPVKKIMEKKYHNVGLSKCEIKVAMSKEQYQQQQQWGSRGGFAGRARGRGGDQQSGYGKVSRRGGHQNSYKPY
Sequence of His6-p37AUF1(30-287) (Q14103 other isoform, or with tags, fused parts or gaps): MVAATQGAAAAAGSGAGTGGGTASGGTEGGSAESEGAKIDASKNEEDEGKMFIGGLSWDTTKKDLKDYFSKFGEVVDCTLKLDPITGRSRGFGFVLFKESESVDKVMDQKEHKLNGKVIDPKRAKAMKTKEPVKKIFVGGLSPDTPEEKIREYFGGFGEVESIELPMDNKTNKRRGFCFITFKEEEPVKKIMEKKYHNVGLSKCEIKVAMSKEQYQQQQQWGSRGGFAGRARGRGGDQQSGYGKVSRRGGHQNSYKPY
Sequence of His6-p37AUF1 W250F (Q14103 other isoform, or with tags, fused parts or gaps W250F | W250F W250F): as the sequence (Q14103 other isoform, or with tags, fused parts or gaps W87F | W87F W87F) above, with F87W, W250F counted along it
Sequence of His6-p37AUF1(Δ69-77) (Q14103 other isoform, or with tags, fused parts or gaps del69-77 | mutant): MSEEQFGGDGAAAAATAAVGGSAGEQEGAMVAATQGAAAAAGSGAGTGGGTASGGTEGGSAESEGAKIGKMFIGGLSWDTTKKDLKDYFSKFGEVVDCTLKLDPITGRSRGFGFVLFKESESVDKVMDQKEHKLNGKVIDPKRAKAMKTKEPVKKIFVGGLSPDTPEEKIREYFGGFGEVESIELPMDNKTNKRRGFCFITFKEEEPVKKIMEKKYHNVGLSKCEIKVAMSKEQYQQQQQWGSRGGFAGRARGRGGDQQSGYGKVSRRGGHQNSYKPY
Sequence of His6-p37AUF1(69-287) (Q14103 other isoform, or with tags, fused parts or gaps): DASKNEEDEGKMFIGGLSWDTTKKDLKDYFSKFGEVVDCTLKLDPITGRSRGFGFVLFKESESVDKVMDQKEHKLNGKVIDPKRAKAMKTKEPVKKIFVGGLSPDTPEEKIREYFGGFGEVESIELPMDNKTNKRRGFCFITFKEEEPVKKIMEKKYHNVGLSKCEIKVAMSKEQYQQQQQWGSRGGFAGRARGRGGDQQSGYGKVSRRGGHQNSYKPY

UGGCCAAUGCCCUGGCUCACAAAUACCACUG (ssRNA) [Fl-Rβ]: no binding (His6-p37AUF1 wt [1]; label: 5' fluorescein); no binding (His6-p37AUF1(78-239) [2]; label: 5' fluorescein).

UGGCCAAUGCCCUGGCUCACAAAUACCACUG (ssRNA) [B-Rβ]: no binding (His6-p37AUF1 wt [3]); no binding (His6-p37AUF1(78-239) [4]).

Binder GUGAUUAUUUAUUAUUUAUUUAUUAUUUAUUUAUUUAG (ssRNA) [Fl-ARE2] has a Kd (His6-p37AUF1(1-239) [5]) of 156 ± 7 nM, a Kd (His6-p37AUF1 wt [6]) of 16 ± 3 nM and a Kd (His6-p37AUF1(78-239) [7]) of 853 ± 48 nM.

UUAUUUAUUUAUUUAG (ssRNA) [ARE15-G (unlabeled)]: binds (His6-p37AUF1 W87F [8]).

Work on UUAUUUAUUUAUUUAG (ssRNA) [ARE15-G-Fl] yielded a Kd (His6-p37AUF1(1-239) [9]) of 176 ± 9 nM, a Kd (His6-p37AUF1(69-287)) of 467 ± 33 nM and a Kd (His6-p37AUF1(69-239)) of 933 ± 90 nM. It also gave a Kd (His6-p37AUF1 wt [1]) of 110 ± 5 nM, a Kd (His6-p37AUF1(78-239) [2]) of 796 ± 103 nM and a Kd (His6-p37AUF1(78-287)) of 1090 ± 69 nM.

CCCCUGGCUCACAAAUACCUUAUUUAUUUAUUUAG (ssRNA) [ARE1-Fl] was tested, and the Kd (His6-p37AUF1(1-239) [9]) was 101 ± 8 nM, the Kd (His6-p37AUF1(30-287)) was 27 ± 1.4 nM and the Kd (p37AUF1 (EK-cleaved)) was 15 ± 2 nM. It also gave a Kd (His6-p37AUF1(Δ69-77)) of 89 ± 11 nM, a Kd (His6-p37AUF1(69-239)) of 527 ± 54 nM and a Kd (His6-p37AUF1 wt [1]) of 19 ± 3 nM. It also gave a Kd (His6-p37AUF1(78-239) [2]) of 505 ± 34 nM and a Kd (His6-p37AUF1 W250F) of 22 ± 2 nM.

CCCCUGGCUCACAAAUACCUUAUUUAUUUAUUUAG (ssRNA) [ARE1 (unlabeled)]: binds (His6-p37AUF1 W87F [10]).
